Experiment [1] concerns the target T1, CD22 extracellular domain (CD22 ECD) produced in HEK293F cells (Homo sapiens, UniProt P20273). The experiment is described as follows: BLI. On the technique in general: Biolayer interferometry detects binding as a change in optical thickness at a sensor tip.
The target in experiment [2] is T1, CD22 extracellular domain (CD22 ECD) …. The experiment is described as follows: ITC. On the technique in general: In ITC the heat of successive injections is recorded.
Experiment [3] addresses CD22 construct with smaller N-linked glycans (human) (UniProt P20273). The experiment can be described thus: BLI.

T1 sequence (P20273 20-687): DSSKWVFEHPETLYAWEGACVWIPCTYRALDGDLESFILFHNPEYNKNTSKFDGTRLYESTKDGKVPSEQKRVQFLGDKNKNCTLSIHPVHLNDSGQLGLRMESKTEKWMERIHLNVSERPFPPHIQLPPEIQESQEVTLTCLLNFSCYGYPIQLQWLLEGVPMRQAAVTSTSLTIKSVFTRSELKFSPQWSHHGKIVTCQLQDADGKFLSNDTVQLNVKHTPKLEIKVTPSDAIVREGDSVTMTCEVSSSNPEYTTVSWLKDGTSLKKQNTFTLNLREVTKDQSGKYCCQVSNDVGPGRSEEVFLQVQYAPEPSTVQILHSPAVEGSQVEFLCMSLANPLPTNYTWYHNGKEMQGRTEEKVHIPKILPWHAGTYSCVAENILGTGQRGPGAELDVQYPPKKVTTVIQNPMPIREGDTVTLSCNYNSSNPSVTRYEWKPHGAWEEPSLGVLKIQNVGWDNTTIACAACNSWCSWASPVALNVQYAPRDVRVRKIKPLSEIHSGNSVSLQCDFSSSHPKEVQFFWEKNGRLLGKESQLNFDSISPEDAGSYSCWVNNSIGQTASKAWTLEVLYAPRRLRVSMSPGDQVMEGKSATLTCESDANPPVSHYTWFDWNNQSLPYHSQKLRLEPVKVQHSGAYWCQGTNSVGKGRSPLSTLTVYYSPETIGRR
Sequence of CD22 construct with smaller N-linked glycans (human) (P20273 20-687): as above

B1: epratuzumab Fab (Fab, V domains shown)
VH: QVQLVQSGAEVKKPGSSVKVSCKASGYTFTSYWLHWVRQAPGQGLEWIGYINPRNDYTEYNQNFKDKATITADESTNTAYMELSSLRSEDTAFYFCARRDITTFYWGQGTTVTVSS
VL: DIQLTQSPSSLSASVGDRVTMSCKSSQSVLYSANHKNYLAWYQQKPGKAPKLLIYWASTRESGVPSRFSGSGSGTDFTLTISSLQPEDIATYYCHQYLSSWTFGGGTKLEIK
In general, Kd refers to a measure of binding affinity in units of concentration. Read a low Kd as tighter binding. For the molecule B1, the Kd in experiment [1] is 327 nM; in experiment [2], 188 nM; in experiment [3], 24 nM.

The values are drawn from paper PMC6124603 (Journal of Visualized Experiments : JoVE, 2018).
